Reference: the supplement of paper PMC9112550, “Optimization of the antimicrobial peptide Bac7 by deep mutational scanning” (BMC Biology, 2022)

Tested on: Escherichia coli TOP10
Experiment: shrunken log2 fold change of peptide-encoding DNA abundance (4.5 h post-induction vs induction); higher = less antimicrobial activity (less host growth inhibition)
Details: time post-induction: 4.5 h; library: site-saturation at positions 5, 18, 19, 20
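Further: peptides expressed intracellularly from a pBAD plasmid library in pooled LB shake-flask culture, induced with 0.3% L-arabinose, DNA abundance read by NGS, three biological replicates, DESeq2 with apeglm shrinkage.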

| Sequence | shrunken log2 fold change |
| --- | --- |
| RRIRWRPPRLPRPRPRPGAHPRP | 0.32 |
| RRIRWRPPRLPRPRPRPGAMPRP | 0.524 |
| RRIRWRPPRLPRPRPRPGDYPRP | 0.0468 |
| RRIRWRPPRLPRPRPRPGEQPRP | 0.0722 |
| RRIRWRPPRLPRPRPRPGERPRP | 0.303 |
| RRIRWRPPRLPRPRPRPGEYPRP | 0.147 |
| RRIRWRPPRLPRPRPRPGFGPRP | 0.651 |
| RRIRWRPPRLPRPRPRPGFQPRP | 0.127 |
| RRIRWRPPRLPRPRPRPGGMPRP | 0.286 |
| RRIRWRPPRLPRPRPRPGHTPRP | 0.0581 |
| RRIRWRPPRLPRPRPRPGIFPRP | 0.0995 |
| RRIRWRPPRLPRPRPRPGINPRP | 0.0653 |
| RRIRWRPPRLPRPRPRPGITPRP | 0.0178 |
| RRIRWRPPRLPRPRPRPGLDPRP | 0.601 |
| RRIRWRPPRLPRPRPRPGLRPRP | 0.53 |
| RRIRWRPPRLPRPRPRPGMLPRP | -0.11 |
| RRIRWRPPRLPRPRPRPGNDPRP | 0.895 |
| RRIRWRPPRLPRPRPRPGPEPRP | 0.809 |
| RRIRWRPPRLPRPRPRPGQIPRP | -0.0275 |
| RRIRWRPPRLPRPRPRPGQNPRP | 0.134 |
| RRIRWRPPRLPRPRPRPGRQPRP | -0.00663 |
| RRIRWRPPRLPRPRPRPGRRPRP | 0.106 |
| RRIRWRPPRLPRPRPRPGVAPRP | 0.821 |
| RRIRWRPPRLPRPRPRPGVEPRP | 0.579 |
| RRIRWRPPRLPRPRPRPGVQPRP | 0.309 |

| Sequence | shrunken log2 fold change |
| --- | --- |
| RRIRWRPPRLPRPRPRPGWFPRP | 0.249 |
| RRIRWRPPRLPRPRPRPGYTPRP | -0.13 |
| RRIRWRPPRLPRPRPRPHALPRP | -0.118 |
| RRIRWRPPRLPRPRPRPHATPRP | 0.816 |
| RRIRWRPPRLPRPRPRPHCCPRP | -0.124 |
| RRIRWRPPRLPRPRPRPHCIPRP | -0.207 |
| RRIRWRPPRLPRPRPRPHDVPRP | 0.132 |
| RRIRWRPPRLPRPRPRPHDWPRP | 0.15 |
| RRIRWRPPRLPRPRPRPHEMPRP | 0.433 |
| RRIRWRPPRLPRPRPRPHFRPRP | 0.0695 |
| RRIRWRPPRLPRPRPRPHGAPRP | 0.0287 |
| RRIRWRPPRLPRPRPRPHGTPRP | -0.137 |
| RRIRWRPPRLPRPRPRPHIIPRP | -0.441 |
| RRIRWRPPRLPRPRPRPHKHPRP | -0.117 |
| RRIRWRPPRLPRPRPRPHLNPRP | 0.0153 |
| RRIRWRPPRLPRPRPRPHMKPRP | -0.204 |
| RRIRWRPPRLPRPRPRPHMMPRP | -0.349 |
| RRIRWRPPRLPRPRPRPHPSPRP | 0.452 |
| RRIRWRPPRLPRPRPRPHPTPRP | 0.115 |
| RRIRWRPPRLPRPRPRPHQKPRP | 0.0146 |
| RRIRWRPPRLPRPRPRPHQTPRP | 0.0649 |
| RRIRWRPPRLPRPRPRPHQYPRP | -0.29 |
| RRIRWRPPRLPRPRPRPHRMPRP | -0.203 |
| RRIRWRPPRLPRPRPRPHRPPRP | -0.135 |
| RRIRWRPPRLPRPRPRPHSAPRP | -0.0726 |

| Sequence | shrunken log2 fold change |
| --- | --- |
| RRIRWRPPRLPRPRPRPHTHPRP | -0.268 |
| RRIRWRPPRLPRPRPRPHVLPRP | -0.096 |
| RRIRWRPPRLPRPRPRPHVSPRP | -0.0109 |
| RRIRWRPPRLPRPRPRPHWAPRP | -0.102 |
| RRIRWRPPRLPRPRPRPHYNPRP | -0.772 |
| RRIRWRPPRLPRPRPRPHYPPRP | -0.225 |
| RRIRWRPPRLPRPRPRPHYQPRP | -0.00398 |
| RRIRWRPPRLPRPRPRPIAFPRP | 0.171 |
| RRIRWRPPRLPRPRPRPIARPRP | -0.00663 |
| RRIRWRPPRLPRPRPRPICFPRP | 0.135 |
| RRIRWRPPRLPRPRPRPIDGPRP | 0.19 |
| RRIRWRPPRLPRPRPRPIDQPRP | 0.105 |
| RRIRWRPPRLPRPRPRPIEYPRP | -0.224 |
| RRIRWRPPRLPRPRPRPIGMPRP | -0.131 |
| RRIRWRPPRLPRPRPRPIIKPRP | -0.312 |
| RRIRWRPPRLPRPRPRPIIQPRP | -0.151 |
| RRIRWRPPRLPRPRPRPIKLPRP | -0.216 |
| RRIRWRPPRLPRPRPRPIKMPRP | 0.212 |
| RRIRWRPPRLPRPRPRPIKSPRP | 0.0589 |
| RRIRWRPPRLPRPRPRPILAPRP | 0.364 |
| RRIRWRPPRLPRPRPRPIMSPRP | -0.161 |
| RRIRWRPPRLPRPRPRPIMYPRP | -0.0994 |
| RRIRWRPPRLPRPRPRPINRPRP | -0.328 |
| RRIRWRPPRLPRPRPRPIPSPRP | 0.0317 |
| RRIRWRPPRLPRPRPRPIRNPRP | -0.334 |

| Sequence | shrunken log2 fold change |
| --- | --- |
| RRIRWRPPRLPRPRPRPIRPPRP | -0.116 |
| RRIRWRPPRLPRPRPRPISWPRP | 0.0165 |
| RRIRWRPPRLPRPRPRPITTPRP | 0.0992 |
| RRIRWRPPRLPRPRPRPIVTPRP | 0.0938 |
| RRIRWRPPRLPRPRPRPIWCPRP | 0.151 |
| RRIRWRPPRLPRPRPRPIWMPRP | -0.000467 |
| RRIRWRPPRLPRPRPRPIYIPRP | -0.889 |
| RRIRWRPPRLPRPRPRPIYQPRP | -0.288 |
| RRIRWRPPRLPRPRPRPKCDPRP | 0.033 |
| RRIRWRPPRLPRPRPRPKCQPRP | 0.136 |
| RRIRWRPPRLPRPRPRPKEAPRP | 0.111 |
| RRIRWRPPRLPRPRPRPKEHPRP | 0.126 |
| RRIRWRPPRLPRPRPRPKEYPRP | 0.02 |
| RRIRWRPPRLPRPRPRPKGWPRP | 0.845 |
| RRIRWRPPRLPRPRPRPKHYPRP | 0.473 |
| RRIRWRPPRLPRPRPRPKIGPRP | -0.0273 |
| RRIRWRPPRLPRPRPRPKILPRP | -0.0469 |
| RRIRWRPPRLPRPRPRPKKPPRP | 0.558 |
| RRIRWRPPRLPRPRPRPKLKPRP | 0.507 |
| RRIRWRPPRLPRPRPRPKLSPRP | -0.0389 |
| RRIRWRPPRLPRPRPRPKNHPRP | -0.248 |
| RRIRWRPPRLPRPRPRPKVRPRP | -0.00879 |
| RRIRWRPPRLPRPRPRPKWCPRP | -0.0668 |
| RRIRWRPPRLPRPRPRPKYFPRP | -0.302 |
| RRIRWRPPRLPRPRPRPLAAPRP | 0.994 |

| Sequence | shrunken log2 fold change |
| --- | --- |
| RRIRWRPPRLPRPRPRPLCHPRP | -0.0785 |
| RRIRWRPPRLPRPRPRPLDHPRP | 0.165 |
| RRIRWRPPRLPRPRPRPLETPRP | -0.0608 |
| RRIRWRPPRLPRPRPRPLFAPRP | 0.579 |
| RRIRWRPPRLPRPRPRPLFIPRP | -0.353 |
| RRIRWRPPRLPRPRPRPLGAPRP | 0.483 |
| RRIRWRPPRLPRPRPRPLGGPRP | 0.253 |
| RRIRWRPPRLPRPRPRPLGIPRP | -0.242 |
| RRIRWRPPRLPRPRPRPLGSPRP | -0.0308 |
| RRIRWRPPRLPRPRPRPLHPPRP | 0.597 |
| RRIRWRPPRLPRPRPRPLHTPRP | 0.0467 |
| RRIRWRPPRLPRPRPRPLIGPRP | 0.0414 |
| RRIRWRPPRLPRPRPRPLIWPRP | 0.515 |
| RRIRWRPPRLPRPRPRPLKNPRP | 0.245 |
| RRIRWRPPRLPRPRPRPLLGPRP | 0.875 |
| RRIRWRPPRLPRPRPRPLLVPRP | 0.172 |
| RRIRWRPPRLPRPRPRPLMAPRP | 0.247 |
| RRIRWRPPRLPRPRPRPLPEPRP | 0.265 |
| RRIRWRPPRLPRPRPRPLPVPRP | -0.0992 |
| RRIRWRPPRLPRPRPRPLQEPRP | 0.36 |
| RRIRWRPPRLPRPRPRPLQQPRP | 0.115 |
| RRIRWRPPRLPRPRPRPLRNPRP | 0.847 |
| RRIRWRPPRLPRPRPRPLSQPRP | 0.0157 |
| RRIRWRPPRLPRPRPRPLVLPRP | 0.0697 |
| RRIRWRPPRLPRPRPRPLYVPRP | -0.836 |

| Sequence | shrunken log2 fold change |
| --- | --- |
| RRIRWRPPRLPRPRPRPMCPPRP | -0.232 |
| RRIRWRPPRLPRPRPRPMCVPRP | 0.0501 |
| RRIRWRPPRLPRPRPRPMEHPRP | 0.107 |
| RRIRWRPPRLPRPRPRPMGWPRP | 0.299 |
| RRIRWRPPRLPRPRPRPMITPRP | 0.0975 |
| RRIRWRPPRLPRPRPRPMKCPRP | -0.0018 |
| RRIRWRPPRLPRPRPRPMKEPRP | -0.23 |
| RRIRWRPPRLPRPRPRPMKGPRP | -0.363 |
| RRIRWRPPRLPRPRPRPMKHPRP | -0.0254 |
| RRIRWRPPRLPRPRPRPMLGPRP | 0.464 |
| RRIRWRPPRLPRPRPRPMLVPRP | 0.288 |
| RRIRWRPPRLPRPRPRPMPHPRP | 0.323 |
| RRIRWRPPRLPRPRPRPMQTPRP | 1 |
| RRIRWRPPRLPRPRPRPMRDPRP | 0.814 |
| RRIRWRPPRLPRPRPRPMRHPRP | 0.228 |
| RRIRWRPPRLPRPRPRPMSHPRP | -0.132 |
| RRIRWRPPRLPRPRPRPMSNPRP | 0.0465 |
| RRIRWRPPRLPRPRPRPMTAPRP | 0.473 |
| RRIRWRPPRLPRPRPRPMTFPRP | -0.108 |
| RRIRWRPPRLPRPRPRPMVGPRP | 0.171 |
| RRIRWRPPRLPRPRPRPMWQPRP | 0.016 |
| RRIRWRPPRLPRPRPRPNCIPRP | -0.0807 |
| RRIRWRPPRLPRPRPRPNCKPRP | -0.0223 |
| RRIRWRPPRLPRPRPRPNCNPRP | -0.101 |
| RRIRWRPPRLPRPRPRPNCYPRP | -0.0773 |
